Assay results: patent publication US20090041754A1 (Astellas, published 2009)

Target: T1, human ATP5B protein with C-terminal V5 epitope, made in vitro from pcDNA-ATP5B (human, UniProt P06576 1-529, radioisotope-labelled (L-[35S] Pro-mix))
T1 construct: In vitro transcription and translation (TNT system); about 60 kDa; also called wild type ATP5B
Assay: GST pull-down of 35S-labelled in vitro translated human ATP5B with GST-DHFR on beads, autoradiography; condition without MTX-phenformin
Experimental: A 15 μl portion of this human ATP5B protein preparation liquid and 1 μg for each of the GST protein or GST-DHFR, purified on the glutathione Sepharose beads, were mixed and shaken at 4° C. for 1 hour after adding 0.3 ml of buffer A thereto. Thereafter, the protein binding to the GST protein or GST-DHFR on beads was co-precipitated by centrifugation.

T1 sequence (P06576 whole entry): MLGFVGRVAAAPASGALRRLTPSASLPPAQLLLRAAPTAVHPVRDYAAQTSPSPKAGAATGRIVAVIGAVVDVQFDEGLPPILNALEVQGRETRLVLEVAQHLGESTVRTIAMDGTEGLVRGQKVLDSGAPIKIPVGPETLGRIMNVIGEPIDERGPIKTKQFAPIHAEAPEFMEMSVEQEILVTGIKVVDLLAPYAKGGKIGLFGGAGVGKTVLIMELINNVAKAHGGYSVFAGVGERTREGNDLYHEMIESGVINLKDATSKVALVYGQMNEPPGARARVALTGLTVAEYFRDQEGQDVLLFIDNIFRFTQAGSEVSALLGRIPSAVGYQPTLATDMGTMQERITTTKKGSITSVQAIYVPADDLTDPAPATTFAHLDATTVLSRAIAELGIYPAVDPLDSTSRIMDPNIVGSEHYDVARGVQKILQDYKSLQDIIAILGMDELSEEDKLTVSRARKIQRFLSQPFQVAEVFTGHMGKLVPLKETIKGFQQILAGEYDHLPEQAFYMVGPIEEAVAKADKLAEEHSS

B1: GST fusion DHFR protein (other, human, UniProt P00374 1-187, looked up)
chain: MVGSLNCIVAVSQNMGIGKNGDLPWPPLRNEFRYFQRMTTTSSVEGKQNLVIMGKKTWFSIPEKNRPLKGRINLVLSRELKEPPQGAHFLSRSLDDALKLTEQPELANKVDMVWIVGGSSVYKEAMNHPGHLKLFVTRIMQDFESDTFFPEIDLEKYKLLPEYPGVLSDVQEEKGIKYKFEVYEKND
notes: domain: complete length; Expressed in E. coli BL21 and purified on glutathione Sepharose beads (45 kDa); also called GST-DHFR; not shown: GST tag of vector pGEX-6P-1 (Amersham)
- binding result: no binding
